From patent publication US9120862

Experiments:
[1] = target: PIVKA-II antigen (Protein Induced by Vitamin K Absence II; decarboxylated prothrombin) (human) (UniProt P00734); experiment: … sandwich chemiluminescent immunoassay, 3C10 microparticles capture, conjugate detects; calibrator E, 7500 mAU/mL PIVKA; mean of 5
[2] = target: PIVKA-II antigen (Protein Induced by Vitamin K Absence II; decarboxylated prothrombin) (human) (UniProt P00734); experiment: … sandwich chemiluminescent immunoassay, 3C10 microparticles capture, conjugate detects; calibrator A, 0 mAU/mL PIVKA (blank); mean of 5
[3] = target: PIVKA-II antigen (Protein Induced by Vitamin K Absence II; decarboxylated prothrombin) (human) (UniProt P00734); experiment: … sandwich chemiluminescent immunoassay, 3C10 microparticles capture, conjugate detects; calibrator B, 20 mAU/mL PIVKA; mean of 5
[4] = target: PIVKA-II antigen (Protein Induced by Vitamin K Absence II; decarboxylated prothrombin) (human) (UniProt P00734); experiment: … sandwich chemiluminescent immunoassay, 3C10 microparticles capture, conjugate detects; calibrator F, 30000 mAU/mL PIVKA; mean of 5
[5] = target: PIVKA-II antigen (Protein Induced by Vitamin K Absence II; decarboxylated prothrombin) (human) (UniProt P00734); experiment: … sandwich chemiluminescent immunoassay, 3C10 microparticles capture, conjugate detects; calibrator D, 750 mAU/mL PIVKA; mean of 5
[6] = target: PIVKA-II antigen (Protein Induced by Vitamin K Absence II; decarboxylated prothrombin) (human) (UniProt P00734); experiment: … sandwich chemiluminescent immunoassay, 3C10 microparticles capture, conjugate detects; calibrator C, 100 mAU/mL PIVKA; mean of 5

RLU [1]: 204000 RLU
RLU [2]: 190 RLU
RLU [3]: 683 RLU
RLU [4]: 871000 RLU
RLU [5]: 19000 RLU
RLU [6]: 2600 RLU
Substance: control conjugate that reacts to human prothrombin (Abbott Japan, Tokyo, Japan) (antibody)
